Consider 1 molecule from US20230312671A1 (ST JUDE CHILDREN S RESEARCH HOSPITAL, published 2023).

Where no end group is shown, it is not given here. The star is where a group is joined. Biotin = O=C1N[C@H]2[C@H](CS[C@H]2CCCCC(=O)*)N1; Ahx = NCCCCCC(=O)O

The target of this assay is T1, Glucose-regulated-protein 78 (GRP78), cell surface (UniProt P11021 19-654, limits assumed).
T1 construct: whole, on cells; The target was endogenous GRP78 on human tumour cell lines; No recombinant GRP78 was used; also called BiP; HSPA5
T1 sequence (P11021 19-654 limits assumed): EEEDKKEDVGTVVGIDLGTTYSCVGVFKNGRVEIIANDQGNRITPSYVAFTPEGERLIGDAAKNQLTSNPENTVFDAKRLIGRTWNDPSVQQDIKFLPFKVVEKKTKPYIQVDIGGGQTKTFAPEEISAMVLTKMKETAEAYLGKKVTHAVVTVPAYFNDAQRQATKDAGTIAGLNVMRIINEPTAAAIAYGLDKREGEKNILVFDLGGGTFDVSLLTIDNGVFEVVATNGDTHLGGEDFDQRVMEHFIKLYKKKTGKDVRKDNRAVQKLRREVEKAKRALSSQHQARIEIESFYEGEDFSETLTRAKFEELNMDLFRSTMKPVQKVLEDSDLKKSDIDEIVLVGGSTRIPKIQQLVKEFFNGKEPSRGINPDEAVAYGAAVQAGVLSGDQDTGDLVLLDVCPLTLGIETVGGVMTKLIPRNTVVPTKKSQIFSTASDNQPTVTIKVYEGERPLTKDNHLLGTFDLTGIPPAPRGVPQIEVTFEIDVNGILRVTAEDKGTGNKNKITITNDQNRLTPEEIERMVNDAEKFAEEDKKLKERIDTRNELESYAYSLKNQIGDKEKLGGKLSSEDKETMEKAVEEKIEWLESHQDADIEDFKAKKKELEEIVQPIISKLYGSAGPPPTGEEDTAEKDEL
Nature of the assay: flow cytometry on AML and solid tumor cell lines, Streptavidin PE detection. From the text:
Anti-KDEL antibody for detection of cell surface GRP78 (Abcam, Clone-10C3; Cat. No. ab115638) and Streptavidin PE (BioLegend, San Diego, CA. Cat. No 405204 were used for flow cytometric analysis. A GRP78-binding peptide ([…] (SEQ ID NO: 1)) with an N-terminal Biotin tag (Biotin-Ahx-[…] (SEQ ID NO: 71)) was obtained from Genscript). The following antibodies purchased from BD Biosciences were used for flow cytometry: CD4, CD8, CCR7 FITC, CD45RA APC, CD19 APC, CD19 PE, CD8 APC-H7, CD4-KrO, TIM3 PE-Cy7, LAG3 PE, and PD1 BV605. Recombinant Human ErbB2/Her2 Fc Chimera Protein (R&D Systems, Cat. No 1129-ER) was used to detect HER2 CAR. Half a million Transduced and Non-Transduced T Cells were washed with 1×PBS and the cells were incubated with 3 μL of antibody and Fixable Live Dead aqua stain (Thermo Fisher Scientific, L34965) on ice and protected from light for 30 mins. Cells were washed with 1×PBS+2% FBS. FACS was carried out using FACS Canto II or Lyric (BD Biosciences). The analysis was performed using FlowJo 10.5.3 software (BD Biosciences, San Jose, CA).
Background: A flow cytometer gives signals particle by particle.

B1: biotin-conjugated GRP78-binding peptide (Biotin-Ahx-CTVALPGGYVRVC) (peptide)
peptide: {Biotin-Ahx}-CTVALPGGYVRVC
modifications: cysteine pairing not given here
notes: Synthetic 13-mer from Genscript, detected with Streptavidin PE in flow cytometry; also called biotin-conjugated peptide
As for B1, the binding result is “binds”.
